Key:
[1] = target: T1, p50 (NF-kB1) (UniProt P19838 1-433); assay: EMSA; p50 alone; mildly enhanced by 1 ng OGG1; 10 mM Tris-HCl pH 8.0, 5 mM NaCl, 1 mM EDTA, 1 mM DTT, 0.1 mg/ml BSA, 0.1 µg/µl poly(dI-dC) (stated for NE reactions), 10 fmol probe, 10 µl, RT 5-10 min; 6% gel 0.5x TBE 4 °C; settings: protein: commercial; chain copies: 2; label: 5' biotin on strand 2; blunt
[2] = target: OGG1 (UniProt O15527 1-345); assay: EMSA; OGG1 alone; more complex when NF-kB present; 10 mM Tris-HCl pH 8.0, 5 mM NaCl, 1 mM EDTA, 1 mM DTT, 0.1 mg/ml BSA, 0.1 µg/µl poly(dI-dC) (stated for NE reactions), 10 fmol probe, 10 µl, RT 5-10 min; 6% gel 0.5x TBE 4 °C; settings: protein: commercial; label: 5' biotin on strand 2; blunt
[3] = target: p65 (RelA) (UniProt Q04206 1-551); assay: EMSA; 15 ng p65 (also 7.5 ng series) with OGG1; 10 mM Tris-HCl pH 8.0, 5 mM NaCl, 1 mM EDTA, 1 mM DTT, 0.1 mg/ml BSA, 0.1 µg/µl poly(dI-dC) (stated for NE reactions), 10 fmol probe, 10 µl, RT 5-10 min; 6% gel 0.5x TBE 4 °C; settings: protein: commercial; chain copies: 2; label: 5' biotin on strand 2; blunt
[4] = target: T1, p50 (NF-kB1); assay: EMSA; homodimer formed in p65/p50 mix, no OGG1; from 1 min; 10 mM Tris-HCl pH 8.0, 5 mM NaCl, 1 mM EDTA, 1 mM DTT, 0.1 mg/ml BSA, 0.1 µg/µl poly(dI-dC) (stated for NE reactions), 10 fmol probe, 10 µl, RT 5-10 min; 6% gel 0.5x TBE 4 °C; settings: protein: commercial; chain copies: 2; label: 5' biotin on strand 2; blunt

T1 sequence (P19838 1-433): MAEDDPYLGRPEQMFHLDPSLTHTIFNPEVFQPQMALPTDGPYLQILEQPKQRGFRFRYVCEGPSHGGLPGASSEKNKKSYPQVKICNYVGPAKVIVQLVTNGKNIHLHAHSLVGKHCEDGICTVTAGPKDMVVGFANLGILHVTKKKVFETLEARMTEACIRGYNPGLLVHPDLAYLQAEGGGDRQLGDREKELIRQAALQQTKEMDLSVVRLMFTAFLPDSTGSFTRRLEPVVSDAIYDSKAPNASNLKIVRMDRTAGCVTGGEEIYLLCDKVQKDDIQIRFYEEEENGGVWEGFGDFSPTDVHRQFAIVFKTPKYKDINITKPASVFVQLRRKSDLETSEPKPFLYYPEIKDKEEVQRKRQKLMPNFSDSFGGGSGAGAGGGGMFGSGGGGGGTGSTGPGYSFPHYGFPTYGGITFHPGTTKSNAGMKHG
Chain of p65 (RelA) (Q04206 whole entry): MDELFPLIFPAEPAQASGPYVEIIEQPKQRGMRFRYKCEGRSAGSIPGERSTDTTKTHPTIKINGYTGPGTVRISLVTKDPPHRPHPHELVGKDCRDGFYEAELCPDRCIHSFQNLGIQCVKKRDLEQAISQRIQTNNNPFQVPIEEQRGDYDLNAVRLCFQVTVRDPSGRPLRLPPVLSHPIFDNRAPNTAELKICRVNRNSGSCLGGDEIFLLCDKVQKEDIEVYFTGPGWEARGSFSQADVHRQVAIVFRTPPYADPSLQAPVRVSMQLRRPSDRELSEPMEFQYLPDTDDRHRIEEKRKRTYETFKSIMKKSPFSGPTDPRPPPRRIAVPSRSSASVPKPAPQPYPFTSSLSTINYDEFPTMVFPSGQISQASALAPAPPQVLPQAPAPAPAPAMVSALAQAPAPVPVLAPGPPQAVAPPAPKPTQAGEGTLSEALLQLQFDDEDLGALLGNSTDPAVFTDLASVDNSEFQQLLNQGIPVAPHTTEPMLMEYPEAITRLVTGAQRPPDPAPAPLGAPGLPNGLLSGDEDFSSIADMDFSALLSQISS
Chain of OGG1 (O15527 whole entry): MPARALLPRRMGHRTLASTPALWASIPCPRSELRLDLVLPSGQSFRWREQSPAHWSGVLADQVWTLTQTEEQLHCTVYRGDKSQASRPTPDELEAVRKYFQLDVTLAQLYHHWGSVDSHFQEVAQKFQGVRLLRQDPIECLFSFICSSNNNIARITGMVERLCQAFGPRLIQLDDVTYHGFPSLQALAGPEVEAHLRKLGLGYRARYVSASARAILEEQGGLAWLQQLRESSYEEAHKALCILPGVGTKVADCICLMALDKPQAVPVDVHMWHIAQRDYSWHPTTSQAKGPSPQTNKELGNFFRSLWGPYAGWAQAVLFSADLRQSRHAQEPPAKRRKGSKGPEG

Binder | binding result [1] | binding result [2] | binding signal [3] [fold vs p65 alone] | binding result [4]
κB2-G6 (dsDNA, 8-oxoG at strand 2 position 23 (opposite C11 of strand 1)) DNA 1: TGAGGGGACCCTGAGCTCAGGGAATTTCCCTGG DNA 2: CCAGGGAAATTCCCTGAGCTCAGGGTCCCCTCA | binds | binds | > 10 | –
κB2-Wt (dsDNA) DNA 1: TGAGGGGACCCTGAGCTCAGGGAATTTCCCTGG DNA 2: CCAGGGAAATTCCCTGAGCTCAGGGTCCCCTCA | – | – | – | binds
